Measured values from US20210395381A1 (OSSIANIX, published 2021).

Assays:
recombinant mouse TfR-1 = target: T1, recombinant mouse TfR-1 (mouse, UniProt Q62351 89-763); experiment: phage ELISA
T1 construct: Recombinant protein coated at 1 ug/ml in the phage ELISA; also called mTfR1; mouse transferrin receptor-1

recombinant human TfR-1 = target: T2, recombinant human TfR-1 (human, UniProt P02786 89-760); experiment: phage ELISA
T2 construct: Recombinant protein coated at 1 ug/ml in the phage ELISA; also called hTfR1; human transferrin receptor-1
T2 sequence (P02786 89-760 limits assumed): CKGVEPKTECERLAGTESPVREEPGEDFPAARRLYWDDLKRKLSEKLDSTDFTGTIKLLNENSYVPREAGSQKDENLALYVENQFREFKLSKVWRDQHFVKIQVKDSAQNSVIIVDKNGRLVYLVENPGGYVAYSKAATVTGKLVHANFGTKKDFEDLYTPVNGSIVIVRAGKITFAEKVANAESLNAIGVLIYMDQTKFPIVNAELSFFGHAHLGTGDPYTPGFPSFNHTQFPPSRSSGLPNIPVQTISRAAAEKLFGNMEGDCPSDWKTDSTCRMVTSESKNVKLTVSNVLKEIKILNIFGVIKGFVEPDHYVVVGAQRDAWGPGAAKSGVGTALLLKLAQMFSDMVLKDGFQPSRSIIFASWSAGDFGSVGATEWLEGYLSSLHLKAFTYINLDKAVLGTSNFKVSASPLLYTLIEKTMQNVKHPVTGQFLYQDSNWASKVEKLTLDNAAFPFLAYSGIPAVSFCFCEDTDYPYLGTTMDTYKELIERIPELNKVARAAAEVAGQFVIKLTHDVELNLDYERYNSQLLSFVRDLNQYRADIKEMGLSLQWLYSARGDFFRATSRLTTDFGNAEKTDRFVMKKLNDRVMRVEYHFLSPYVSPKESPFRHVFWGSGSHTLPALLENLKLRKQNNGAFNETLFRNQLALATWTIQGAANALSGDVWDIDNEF

T1 sequence (Q62351 89-763 limits assumed): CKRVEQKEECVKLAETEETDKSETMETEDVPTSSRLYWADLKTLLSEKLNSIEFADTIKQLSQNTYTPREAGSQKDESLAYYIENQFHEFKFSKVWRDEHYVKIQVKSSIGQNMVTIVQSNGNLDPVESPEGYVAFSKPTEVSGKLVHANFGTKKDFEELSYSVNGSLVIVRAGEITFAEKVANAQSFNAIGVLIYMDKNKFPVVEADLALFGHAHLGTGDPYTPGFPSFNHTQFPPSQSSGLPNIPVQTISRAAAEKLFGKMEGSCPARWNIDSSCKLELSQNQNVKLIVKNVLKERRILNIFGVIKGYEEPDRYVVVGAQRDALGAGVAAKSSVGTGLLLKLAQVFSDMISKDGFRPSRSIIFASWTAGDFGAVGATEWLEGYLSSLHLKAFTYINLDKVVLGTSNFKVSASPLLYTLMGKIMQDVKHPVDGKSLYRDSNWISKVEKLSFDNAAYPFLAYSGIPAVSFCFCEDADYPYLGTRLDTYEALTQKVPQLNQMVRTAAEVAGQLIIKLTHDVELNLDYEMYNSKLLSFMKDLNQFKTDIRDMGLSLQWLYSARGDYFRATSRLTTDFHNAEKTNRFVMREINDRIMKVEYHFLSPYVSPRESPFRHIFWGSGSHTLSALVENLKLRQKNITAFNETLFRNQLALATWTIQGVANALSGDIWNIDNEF

B1: Clone 8.1 (VNAR)
VNAR: ARVDQTPQTITKETGESLTINCVLRDSNCALPSTYWYRKKSGSTNEESISKGGRYVETVNSGSKSFSLRINDLTVEDSGTYRCKVLRLLSSILRGCNYRKHDVYGDGTAVTVNA
notes: VNAR on phage; Clone 8 framework
A450 (recombinant mouse TfR-1): 0.312 A450
A450 (recombinant human TfR-1): 0.371 A450

B2: Clone 8.137 (VNAR)
VNAR: ARVDQTPQTITKETGESLTINCVLRDSNCALPSTYWYRKKSGSTNEESISKGGRYVETVNSGSKSFSLRINDLTVEDSGTYRCKVIAQLSSILRGCNYFGKDVYGDGTAVTVNA
notes: as for B1
A450 (recombinant human TfR-1): 0.076 A450

B3: Clone 8.23 (VNAR)
VNAR: ARVDQTPQTITKETGESLTINCVLRDSNCALPSTYWYRKKSGSTNEESISKGGRYVETVNSGSKSFSLRINDLTVEDSGTYRCKVIAQLPKQLRGCNYRKHDVYGDGTAVTVNA
notes: as for B1
A450 (recombinant mouse TfR-1): 0.085 A450
A450 (recombinant human TfR-1): 0.055 A450

B4: Clone 8.13 (VNAR)
VNAR: ARVDQTPQTITKETGESLTINCVLRDSNCALPSTYWYRKKSGSTNEESISKGGRYVETVNSGSKSFSLRINDLTVEDSGTYRCKVIAQLALALRGCNYRKHDVYGDGTAVTVNA
notes: as for B1
A450 (recombinant mouse TfR-1): 0.096 A450
A450 (recombinant human TfR-1): 0.075 A450

B5: Clone 8.29 (VNAR)
VNAR: ARVDQTPQTITKETGESLTINCVLRDSNCALPSTYWYRKKSGSTNEESISKGGRYVETVNSGSKSFSLRINDLTVEDSGTYRCKVIAQLSSILLTCEYRKHDVYGDGTAVTVNA
notes: as for B1
A450 (recombinant mouse TfR-1): 0.077 A450
A450 (recombinant human TfR-1): 0.059 A450

B6: Clone 8.8 (VNAR)
VNAR: ARVDQTPQTITKETGESLTINCVLRDSNCALPSTYWYRKKSGSTNEESISKGGRYVETVNSGSKSFSLRINDLTVEDSGTYRCKVFAPLSSILRGCNYRKHDVYGDGTAVTVNA
notes: as for B1
A450 (recombinant mouse TfR-1): 0.118 A450
A450 (recombinant human TfR-1): 0.103 A450

B7: Clone 8.3 (VNAR)
VNAR: ARVDQTPQTITKETGESLTINCVLRDSNCALPSTYWYRKKSGSTNEESISKGGRYVETVNSGSKSFSLRINDLTVEDSGTYRCKVVRFLSSILRGCNYRKHDVYGDGTAVTVNA
notes: as for B1
A450 (recombinant mouse TfR-1): 0.194 A450
A450 (recombinant human TfR-1): 0.27 A450

B8: Clone 8.17 (VNAR)
VNAR: ARVDQTPQTITKETGESLTINCVLRDSNCALPSTYWYRKKSGSTNEESISKGGRYVETVNSGSKSFSLRINDLTVEDSGTYRCKVIAYRKSIVRGCNYRKHDVYGDGTAVTVNA
notes: as for B1
A450 (recombinant human TfR-1): 0.091 A450

B9: Clone 8.6 (VNAR)
VNAR: ARVDQTPQTITKETGESLTINCVLRDSNCALPSTYWYRKKSGSTNEESISKGGRYVETVNSGSKSFSLRINDLTVEDSGTYRCKVIAQWWSILRGCNYRKHDVYGDGTAVTVNA
notes: as for B1
A450 (recombinant mouse TfR-1): 0.164 A450
A450 (recombinant human TfR-1): 0.199 A450

B10: Clone 8.15 (VNAR)
VNAR: ARVDQTPQTITKETGESLTINCVLRDSNCALPSTYWYRKKSGSTNEESISKGGRYVETVNSGSKSFSLRINDLTVEDSGTYRCKVMWNLSSILRGCNYRKHDVYGDGTAVTVNA
notes: as for B1
A450 (recombinant mouse TfR-1): 0.095 A450
A450 (recombinant human TfR-1): 0.095 A450

B11: Clone 8.14 (VNAR)
VNAR: ARVDQTPQTITKETGESLTINCVLRDSNCALPSTYWYRKKSGSTNEESISKGGRYVETVNSGSKSFSLRINDLTVEDSGTYRCKVIAQLSSILGYCYYRKHDVYGDGTAVTVNA
notes: as for B1
A450 (recombinant mouse TfR-1): 0.095 A450
A450 (recombinant human TfR-1): 0.067 A450

B12: Clone 8.24 (VNAR)
VNAR: ARVDQTPQTITKETGESLTINCVLRDSNCALPSTYWYRKKSGSTNEESISKGGRYVETVNSGSKSFSLRINDLTVEDSGTYRCKVIAQLSSILRGCNYFFPDVYGDGTAVTVNA
notes: as for B1
A450 (recombinant mouse TfR-1): 0.084 A450
A450 (recombinant human TfR-1): 0.093 A450

B13: Clone 8.30 (VNAR)
VNAR: ARVDQTPQTITKETGESLTINCVLRDSNCALPSTYWYRKKSGSTNEESISKGGRYVETVNSGSKSFSLRINDLTVEDSGTYRCKVSMLLSSILRGCNYRKHDVYGDGTAVTVNA
notes: as for B1
A450 (recombinant mouse TfR-1): 0.077 A450
A450 (recombinant human TfR-1): 0.114 A450

B14: Clone 8.27 (VNAR)
VNAR: ARVDQTPQTITKETGESLTINCVLRDSNCALPSTYWYRKKSGSTNEESISKGGRYVETVNSGSKSFSLRINDLTVEDSGTYRCKVQGMLSSILRGCNYRKHDVYGDGTAVTVNA
notes: as for B1
A450 (recombinant mouse TfR-1): 0.08 A450
A450 (recombinant human TfR-1): 0.079 A450

B15: Clone 8.21 (VNAR)
VNAR: ARVDQTPQTITKETGESLTINCVLRDSNCALPSTYWYRKKSGSTNEESISKGGRYVETVNSGSKSFSLRINDLTVEDSGTYRCKVIAHLSSFRDGCNYRKHDVYGDGTAVTVNA
notes: as for B1
A450 (recombinant mouse TfR-1): 0.086 A450
A450 (recombinant human TfR-1): 0.058 A450

B16: Clone 8.20 (VNAR)
VNAR: ARVDQTPQTITKETGESLTINCVLRDSNCALPSTYWYRKKSGSTNEESISKGGRYVETVNSGSKSFSLRINDLTVEDSGTYRCKVIAQLSSILRGCLDKKHDVYGDGTAVTVNA
notes: as for B1
A450 (recombinant mouse TfR-1): 0.087 A450
A450 (recombinant human TfR-1): 0.084 A450

B17: Clone 8.25 (VNAR)
VNAR: ARVDQTPQTITKETGESLTINCVLRDSNCALPSTYWYRKKSGSTNEESISKGGRYVETVNSGSKSFSLRINDLTVEDSGTYRCKVIAQLSSMELGCNYRKHDVYGDGTAVTVNA
notes: as for B1
A450 (recombinant mouse TfR-1): 0.084 A450
A450 (recombinant human TfR-1): 0.06 A450

B18: Clone 8.12 (VNAR)
VNAR: ARVDQTPQTITKETGESLTINCVLRDSNCALPSTYWYRKKSGSTNEESISKGGRYVETVNSGSKSFSLRINDLTVEDSGTYRCKVRWRLSSILRGCNYRKHDVYGDGTAVTVNA
notes: as for B1
A450 (recombinant mouse TfR-1): 0.1 A450
A450 (recombinant human TfR-1): 0.108 A450

B19: Clone 8.19 (VNAR)
VNAR: ARVDQTPQTITKETGESLTINCVLRDSNCALPSTYWYRKKSGSTNEESISKGGRYVETVNSGSKSFSLRINDLTVEDSGTYRCKVQSQLSIVLRGCNYRKHDVYGDGTAVTVNA
notes: as for B1
A450 (recombinant mouse TfR-1): 0.088 A450
A450 (recombinant human TfR-1): 0.078 A450

B20: Clone 8.26 (VNAR)
VNAR: ARVDQTPQTITKETGESLTINCVLRDSNCALPSTYWYRKKSGSTNEESISKGGRYVETVNSGSKSFSLRINDLTVEDSGTYRCKVIASAFSILRGCNYRKHDVYGDGTAVTVNA
notes: as for B1
A450 (recombinant mouse TfR-1): 0.082 A450
A450 (recombinant human TfR-1): 0.087 A450

B21: Clone 8.9 (VNAR)
VNAR: ARVDQTPQTITKETGESLTINCVLRDSNCALPSTYWYRKKSGSTNEESISKGGRYVETVNSGSKSFSLRINDLTVEDSGTYRCKVWNMLSSILRGCNYRKHDVYGDGTAVTVNA
notes: as for B1
A450 (recombinant mouse TfR-1): 0.108 A450
A450 (recombinant human TfR-1): 0.119 A450

B22: Clone 8.28 (VNAR)
VNAR: ARVDQTPQTITKETGESLTINCVLRDSNCALPSTYWYRKKSGSTNEESISKGGRYVETVNSGSKSFSLRINDLTVEDSGTYRCKVAFILSSILRGCNYRKHDVYGDGTAVTVNA
notes: as for B1
A450 (recombinant mouse TfR-1): 0.077 A450
A450 (recombinant human TfR-1): 0.085 A450

B23: Clone 8.4 (VNAR)
VNAR: ARVDQTPQTITKETGESLTINCVLRDSNCALPSTYWYRKKSGSTNEESISKGGRYVETVNSGSKSFSLRINDLTVEDSGTYRCKVKLWLSSILRGCNYRKHDVYGDGTAVTVNA
notes: as for B1
A450 (recombinant mouse TfR-1): 0.188 A450
A450 (recombinant human TfR-1): 0.173 A450

B24: Clone 8.5 (VNAR)
VNAR: ARVDQTPQTITKETGESLTINCVLRDSNCALPSTYWYRKKSGSTNEESISKGGRYVETVNSGSKSFSLRINDLTVEDSGTYRCKVIAQLGWWLRGCNYRKHDVYGDGTAVTVNA
notes: as for B1
A450 (recombinant mouse TfR-1): 0.172 A450
A450 (recombinant human TfR-1): 0.152 A450

B25: Clone 8.7 (VNAR)
VNAR: ARVDQTPQTITKETGESLTINCVLRDSNCALPSTYWYRKKSGSTNEESISKGGRYVETVNSGSKSFSLRINDLTVEDSGTYRCKVIAQLSSILKACKYRKHDVYGDGTAVTVNA
notes: as for B1
A450 (recombinant mouse TfR-1): 0.123 A450
A450 (recombinant human TfR-1): 0.087 A450

B26: Clone 8.22 (VNAR)
VNAR: ARVDQTPQTITKETGESLTINCVLRDSNCALPSTYWYRKKSGSTNEESISKGGRYVETVNSGSKSFSLRINDLTVEDSGTYRCKVIAQQKSILRGCNYHKHDVYGDGTAVTVNA
notes: as for B1
A450 (recombinant mouse TfR-1): 0.086 A450
A450 (recombinant human TfR-1): 0.066 A450

B27: Clone 8.16 (VNAR)
VNAR: ARVDQTPQTITKETGESLTINCVLRDSNCALPSTYWYRKKSGSTNEESISKGGRYVETVNSGSKSFSLRINDLTVEDSGTYRCKVIAKLFSILCGCNYRKHDVYGDGTAVTVNA
notes: as for B1
A450 (recombinant mouse TfR-1): 0.092 A450
A450 (recombinant human TfR-1): 0.138 A450

B28: Clone 8.2 (VNAR)
VNAR: ARVDQTPQTITKETGESLTINCVLRDSNCALPSTYWYRKKSGSTNEESISKGGRYVETVNSGSKSFSLRINDLTVEDSGTYRCKVLFNLSSILRGCNYRKHDVYGDGTAVTVNA
notes: as for B1
A450 (recombinant mouse TfR-1): 0.242 A450
A450 (recombinant human TfR-1): 0.315 A450

B29: Clone 8.97 (VNAR)
VNAR: ARVDQTPQTITKETGESLTINCVLRDSNCALPSTYWYRKKSGSTNEESISKGGRYVETVNSGSKSFSLRINDLTVEDSGTYRCKVIAQLSSILRGCNYNIDDVYGDGTAVTVNA
notes: as for B1
A450 (recombinant human TfR-1): 0.057 A450

B30: Clone 8.10 (VNAR)
VNAR: ARVDQTPQTITKETGESLTINCVLRDSNCALPSTYWYRKKSGSTNEESISKGGRYVETVNSGSKSFSLRINDLTVEDSGTYRCKVIAQLAIELRGCNYRKHDVYGDGTAVTVNA
notes: as for B1
A450 (recombinant mouse TfR-1): 0.101 A450
A450 (recombinant human TfR-1): 0.072 A450

B31: Clone 8.11 (VNAR)
VNAR: ARVDQTPQTITKETGESLTINCVLRDSNCALPSTYWYRKKSGSTNEESISKGGRYVETVNSGSKSFSLRINDLTVEDSGTYRCKVIAQLSSIYPGCNYRKHDVYGDGTAVTVNA
notes: as for B1
A450 (recombinant mouse TfR-1): 0.101 A450
A450 (recombinant human TfR-1): 0.066 A450

B32: Clone 8.18 (VNAR)
VNAR: ARVDQTPQTITKETGESLTINCVLRDSNCALPSTYWYRKKSGSTNEESISKGGRYVETVNSGSKSFSLRINDLTVEDSGTYRCKVIAQLSSKYVGCNYRKHDVYGDGTAVTVNA
notes: as for B1
A450 (recombinant mouse TfR-1): 0.09 A450
A450 (recombinant human TfR-1): 0.06 A450
